From patent US6337206B1 (priority 1997, dated 2002)
Like-named read-outs stand apart in the source and are kept apart here. Values belong to the molecule of their own block, whether it stands above or below them. No end group written: not given here.

Tests used:
galanin receptors = conditions: hypothalamus, ventral hippocampus, basal forebrain, spinal cord, pancreas, pituitary; read-out: Kd of specific binding; cited from earlier work
rat GALR2 (clone 27A) [1] = target: T1, rat GALR2 (clone 27A) (Rattus norvegicus, UniProt O08726); test: biochemical
T1 sequence (O08726 1-372): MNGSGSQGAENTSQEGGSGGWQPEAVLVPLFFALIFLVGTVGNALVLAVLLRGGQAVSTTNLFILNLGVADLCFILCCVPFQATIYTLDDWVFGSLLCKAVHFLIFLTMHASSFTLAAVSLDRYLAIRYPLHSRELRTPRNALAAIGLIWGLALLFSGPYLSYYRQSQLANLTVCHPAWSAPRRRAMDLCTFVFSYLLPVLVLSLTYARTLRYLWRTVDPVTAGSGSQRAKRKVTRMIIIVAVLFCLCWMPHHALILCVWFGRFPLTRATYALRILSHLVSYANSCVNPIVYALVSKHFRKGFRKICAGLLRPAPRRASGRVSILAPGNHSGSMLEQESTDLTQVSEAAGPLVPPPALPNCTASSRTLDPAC

rat GALR1 [2] = target: T2, rat GALR1 (Rattus norvegicus, UniProt Q62805); test: biochemical
T2 sequence (Q62805 1-346): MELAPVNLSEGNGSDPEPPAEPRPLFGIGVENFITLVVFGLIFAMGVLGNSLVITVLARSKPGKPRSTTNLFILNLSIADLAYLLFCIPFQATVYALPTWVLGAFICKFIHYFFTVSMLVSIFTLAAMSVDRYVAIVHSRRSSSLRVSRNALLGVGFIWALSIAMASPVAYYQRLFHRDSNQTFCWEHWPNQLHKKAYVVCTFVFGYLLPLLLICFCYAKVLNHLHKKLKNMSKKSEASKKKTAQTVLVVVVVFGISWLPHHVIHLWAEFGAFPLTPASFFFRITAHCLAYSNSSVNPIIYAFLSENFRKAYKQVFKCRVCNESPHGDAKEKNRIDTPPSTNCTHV

rat GALR2 (clone 27A) [3] = target: T1, rat GALR2 (clone 27A)
rat GALR1 [4] = target: T2, rat GALR1
human GALR2 [5] = target: T3, human GALR2 (Homo sapiens, UniProt O43603); test: Aequorin bioluminescence assay in 293-AEQ17 cells, human GALR2; type: cell-based; conditions: read-out: EC50, aequorin bioluminescence; human GALR2 in 293-AEQ17 cells
T3 construct: expressed in transfected cells; host or cells: 293-AEQ17 (aequorin-expressing 293 line)
T3 sequence (O43603 1-387): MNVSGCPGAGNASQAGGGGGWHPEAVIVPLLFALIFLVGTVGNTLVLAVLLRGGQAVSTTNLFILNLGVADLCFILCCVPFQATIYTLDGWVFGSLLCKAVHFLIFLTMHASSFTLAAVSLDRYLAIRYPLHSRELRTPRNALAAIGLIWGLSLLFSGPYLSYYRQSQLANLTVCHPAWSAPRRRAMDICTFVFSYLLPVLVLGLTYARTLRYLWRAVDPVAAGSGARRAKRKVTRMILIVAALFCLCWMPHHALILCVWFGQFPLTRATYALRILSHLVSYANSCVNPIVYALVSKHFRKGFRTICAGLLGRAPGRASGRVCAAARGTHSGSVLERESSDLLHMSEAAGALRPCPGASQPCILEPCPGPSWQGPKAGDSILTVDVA

rat GALR2 = rat GALR2 (UniProt O08726); test: competition
hGALR1* (human) = hGALR1* (human) (UniProt P47211); test: competition
Sequence of hGALR1* (human) (P47211 whole entry): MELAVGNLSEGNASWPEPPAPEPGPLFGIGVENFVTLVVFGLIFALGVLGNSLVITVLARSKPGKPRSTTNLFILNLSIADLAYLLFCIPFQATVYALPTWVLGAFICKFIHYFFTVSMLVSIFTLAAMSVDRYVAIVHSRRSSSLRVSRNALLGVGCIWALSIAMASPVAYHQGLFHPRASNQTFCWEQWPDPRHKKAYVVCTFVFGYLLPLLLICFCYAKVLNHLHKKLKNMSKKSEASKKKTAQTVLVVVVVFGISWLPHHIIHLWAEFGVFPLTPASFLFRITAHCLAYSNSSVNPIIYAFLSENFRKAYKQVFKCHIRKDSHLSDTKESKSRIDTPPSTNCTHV

hGALR2 [6] = target: hGALR2 (UniProt O43603); test: competition
rat GALR1 [7] = target: T4, rat GALR1 (rat, UniProt Q62805 1-346); test: competition of 125I-human galanin binding, membranes
T4 sequence: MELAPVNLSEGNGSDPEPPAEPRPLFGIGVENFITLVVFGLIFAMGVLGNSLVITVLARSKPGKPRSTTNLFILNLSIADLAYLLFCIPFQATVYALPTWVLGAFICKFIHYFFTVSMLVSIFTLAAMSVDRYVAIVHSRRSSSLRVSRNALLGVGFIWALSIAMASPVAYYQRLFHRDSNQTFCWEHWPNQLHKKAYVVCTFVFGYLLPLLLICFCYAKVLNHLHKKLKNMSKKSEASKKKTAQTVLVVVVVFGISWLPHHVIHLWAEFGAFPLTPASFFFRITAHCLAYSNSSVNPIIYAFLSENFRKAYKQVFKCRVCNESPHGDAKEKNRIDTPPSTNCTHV

rat GALR2 (clone 27A) [8] = target: T5, rat GALR2 (clone 27A) (rat, UniProt O08726 1-372); test: competition of 125I-human galanin binding, COS-7 membranes
T5 construct: Full-length 372-amino-acid receptor expressed in transiently transfected COS-7 cells; also called pCI.neo/27A
T5 sequence: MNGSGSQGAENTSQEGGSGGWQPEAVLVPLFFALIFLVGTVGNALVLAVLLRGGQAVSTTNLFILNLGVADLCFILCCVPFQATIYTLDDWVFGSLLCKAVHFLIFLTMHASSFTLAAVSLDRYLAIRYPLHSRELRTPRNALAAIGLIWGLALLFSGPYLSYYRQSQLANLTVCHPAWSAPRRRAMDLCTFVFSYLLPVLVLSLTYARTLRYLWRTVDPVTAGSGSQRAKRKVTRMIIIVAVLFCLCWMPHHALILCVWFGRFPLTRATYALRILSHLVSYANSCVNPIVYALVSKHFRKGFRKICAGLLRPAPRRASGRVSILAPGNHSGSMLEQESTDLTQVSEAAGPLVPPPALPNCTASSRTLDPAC

hGALR2 [9] = target: hGALR2 (UniProt O43603); test: cell-based or functional assay
human GALR2 [10] = target: T6, human GALR2 (UniProt O43603 1-387); test: 125I-human galanin competition binding
T6 chain: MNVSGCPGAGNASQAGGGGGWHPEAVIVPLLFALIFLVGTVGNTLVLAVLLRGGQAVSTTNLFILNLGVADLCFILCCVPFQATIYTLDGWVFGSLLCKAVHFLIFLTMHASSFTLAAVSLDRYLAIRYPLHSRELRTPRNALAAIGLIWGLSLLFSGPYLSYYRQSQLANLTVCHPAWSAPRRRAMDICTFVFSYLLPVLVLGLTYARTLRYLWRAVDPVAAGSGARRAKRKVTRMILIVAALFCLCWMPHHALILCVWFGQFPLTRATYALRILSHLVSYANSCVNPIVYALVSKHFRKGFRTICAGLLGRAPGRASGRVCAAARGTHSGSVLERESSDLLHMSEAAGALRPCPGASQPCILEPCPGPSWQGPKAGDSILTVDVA

human GALR2 [11] = target: T7, human GALR2 (human, UniProt O43603 1-387); test: cell-based or functional assay
T7 sequence: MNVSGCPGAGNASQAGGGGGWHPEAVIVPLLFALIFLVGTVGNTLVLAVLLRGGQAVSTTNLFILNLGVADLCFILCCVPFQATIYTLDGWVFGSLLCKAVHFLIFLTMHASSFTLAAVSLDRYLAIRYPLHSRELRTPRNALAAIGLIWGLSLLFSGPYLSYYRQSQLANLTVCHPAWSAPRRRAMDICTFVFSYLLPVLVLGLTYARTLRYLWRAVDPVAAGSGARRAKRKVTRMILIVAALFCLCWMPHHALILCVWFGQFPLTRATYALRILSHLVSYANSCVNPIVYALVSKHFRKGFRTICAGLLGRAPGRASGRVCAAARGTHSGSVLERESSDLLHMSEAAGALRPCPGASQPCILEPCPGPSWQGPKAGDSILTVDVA

Molecule: 125I-galanin
Kd (galanin receptors): ~1 nM

Molecule: CC(C)C[C@H](NC(=O)[C@H](CC(C)C)NC(=O)[C@@H](Cc1c[nH]c2ccccc12)NC(=O)[C@H](Cc1ccccc1)NC(=O)[C@@H](Cc1c[nH]c2ccccc12)NC(=O)[C@H](CCC(N)=O)NC(=O)[C@H](CCC(N)=O)NC(=O)[C@@H]1CCCN1C(=O)[C@H](CCCCN)NC(=O)[C@@H]1CCCN1C(=O)[C@@H](CCCNC(=N)N)NC(=O)[C@@H]1CCCN1C(=O)CNC(=O)[C@H](CC(C)C)NC(=O)[C@H](CC(C)C)NC(=O)[C@H](Cc1ccc(O)cc1)NC(=O)CNC(=O)[C@H](C)NC(=O)[C@H](CO)NC(=O)[C@H](CC(N)=O)NC(=O)[C@H](CC(C)C)NC(=O)[C@@H](NC(=O)[C@H](Cc1c[nH]c2ccccc12)NC(=O)CN)[C@@H](C)O)C(N)=O [C7]
IC50 (rat GALR2 (clone 27A) [1]): 23 ± 13 nM
IC50 (rat GALR1 [2]): 4.9 ± 3 nM

Molecule: CC[C@H](C)[C@H](NC(=O)[C@H](C)NC(=O)[C@H](Cc1c[nH]cn1)NC(=O)[C@@H]1CCCN1C(=O)CNC(=O)[C@H](CC(C)C)NC(=O)[C@H](CC(C)C)NC(=O)[C@H](Cc1ccc(O)cc1)NC(=O)CNC(=O)[C@H](C)NC(=O)[C@H](CO)NC(=O)[C@H](CC(N)=O)NC(=O)[C@H](CC(C)C)NC(=O)[C@@H](N)[C@@H](C)O)C(=O)N[C@@H](CC(=O)O)C(=O)N[C@@H](CC(N)=O)C(=O)N[C@@H](Cc1c[nH]cn1)C(=O)N[C@@H](CCCNC(=N)N)C(=O)N[C@@H](CO)C(=O)N[C@@H](Cc1ccccc1)C(=O)N[C@@H](CO)C(=O)N[C@@H](CC(=O)O)C(=O)N[C@@H](CCCCN)C(=O)N[C@@H](Cc1c[nH]cn1)C(=O)NCC(=O)N[C@@H](CC(C)C)C(=O)N[C@H](C(N)=O)[C@@H](C)O [rat Gal (3-29)]
IC50 (rat GALR2 (clone 27A) [3]): > 1000 nM
IC50 (rat GALR1 [4]): > 1000 nM
EC50 (human GALR2 [5]): > 10000 nM

Molecule: M35
IC50 (hGALR1* (human)): 0.04 nM
IC50 (hGALR2 [6]): 5.6 nM

Molecule: galantide(M15) (peptide)
IC50 (rat GALR1 [7]): 1 nM

Other lines, results leading:

IC50 (rat GALR2): 13.5 nM
IC50 (hGALR1* (human)): 6.3 nM
IC50 (hGALR2 [6]): 40.5 nM
Molecule: C7

IC50 (rat GALR1 [7]): 0.9 nM
IC50 (rat GALR2 (clone 27A) [8]): 0.43 nM
EC50, aequorin bioluminescence in 293-AEQ17 cells (hGALR2 [9]): 44 nM
Molecule: M35 (peptide)

IC50 (rat GALR2): 1.8 nM
IC50 (hGALR1* (human)): 0.48 nM
IC50 (hGALR2 [6]): 9.5 nM
Molecule: M40

IC50 (rat GALR1 [7]): 0.01 nM
IC50 (rat GALR2 (clone 27A) [8]): 1.9 nM
EC50, aequorin bioluminescence in 293-AEQ17 cells (hGALR2 [9]): 8.8 nM
Molecule: M40 (peptide)

IC50 (human GALR2 [10]): > 1000 nM
EC50, aequorin bioluminescence in 293-AEQ17 cells (human GALR2 [11]): > 10000 nM
Molecule: TLNSAGYLLGPHAIDNHRSFSDKHGLT [rat Gal (3-29)]

IC50 (human GALR2 [10]): 1.6 nM
Molecule: GWTLNSAGYLLGPHAIDNHRSFSDKHGLT (ends and bridges not checked) [rat galanin]

IC50 (rat GALR1 [7]): 0.86 nM
Molecule: GWTLNSAGYLLGPHAVGNH (peptide, UniProt P22466 33-51, looked up, range 1-19; also called hGal (1-19)) [human Gal (1-19)]

IC50 (human GALR2 [10]): 15.4 nM
IC50 (rat GALR2 (clone 27A) [8]): 2.9 nM
EC50, aequorin bioluminescence in 293-AEQ17 cells (human GALR2 [11]): 31 nM
Molecule: WTLNSAGYLLGPHAIDNHRSFSDKHGLT (peptide, UniProt P10683 34-61, looked up, range 2-29; also called rGAL(2-29)) [rat Gal (2-29)]
